Source: the supplement of paper PMC7877785
± gives the uncertainty stated by the source.

Test: self-splicing fitness, log relative to wild type (ln ratio); higher = more splicing; Tetrahymena group I intron in knt gene, E. coli kanamycin selection, DiMSum; sequences stand for … in CUCUCU…GGAGGGAAAAGUUAUCAGGCAUGCACCUGGUAGCUAGUCUUUAAACCAAUAGAUUGCAUCGGUUUAAAAGGCAAGACCGUCAAAUUGCGGGAAAGGGGUCAACAGCCGUUCAGUACCAAGUCUCAGGGGAAACUUUGAGAUGGCCUUGCAAAGGGUAUGGUAAUAAGCUGACGGACAUGGUCCUAACCACGCAGCCAAGUCCUAAGUCAACAGAUCUUCUGUUGAUAUGGAUGCAGUUCACAGACUAAAUGUCGGUCGGGGAAGAUGUAUUCUUCUCAUAAGAUAUAGUCGGACCUCUCCUUAAUGGGAGCUAGCGGAUGAAGUGAUGCAACACUGGAGCCGCUGGGAACUAAUUUGUAUGCGAAAGUAUAUUGAUUAGUUUUGGAGUACUCGUGGUCG
In short: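 Library with all eight P1ex-region intron nucleotides randomised, intron inside the knt kanamycin-resistance gene on pET-22b(+), in E. coli BL21(DE3). Cells grew overnight at 37°C or 30°C on LB agar with or without 25 μg/mL kanamycin (plus 100 μg/mL carbenicillin, 50 μM IPTG, 0.2% rhamnose), in six replicate transformations. Pooled colonies were amplicon-sequenced on Illumina HiSeq 2500. DiMSum fitness is the error-weighted combination of wild-type-normalised replicate fold changes, kanamycin versus none.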

Sequence	self-splicing fitness (ln) (30 °C)	self-splicing fitness (ln) (37 °C)
AGCCAGCAAUAUUACGCUUC	-3.53 ± 0.22	-3.48 ± 0.29
AGCCAGCAAUAUUACGCUUG	-3.52 ± 0.17	-1.58 ± 0.17
AGCCAGCAAUAUUACGGAGG	-3.01 ± 0.14	-1.8 ± 0.26
AGCCAGCAAUAUUACGGCCU	-2.07 ± 0.14	-0.992 ± 0.15
AGCCAGCAAUAUUACGGCUA	-2.42 ± 0.15	-0.727 ± 0.11
AGCCAGCAAUAUUACGGGAU	-4 ± 0.17	-2.05 ± 0.12
AGCCAGCAAUAUUACGGUAC	-2.97 ± 0.2	-1.24 ± 0.13
AGCCAGCAAUAUUACGUAAC	-2.67 ± 0.1	-2.04 ± 0.2
AGCCAGCAAUAUUACGUCCG	-3.12 ± 0.24	-1.71 ± 0.29
AGCCAGCAAUAUUACGUGAC	-3.29 ± 0.17	-2.05 ± 0.19
AGCCAGCAAUAUUACGUGGA	-3.81 ± 0.18	-2.65 ± 0.14
AGCCAGCAAUAUUACGUGGG	-3.16 ± 0.13	-1.3 ± 0.11
AGCCAGCAAUAUUACGUGUU	-3.62 ± 0.11	-1.56 ± 0.087
AGCCAGCAAUAUUACGUUAG	-3.07 ± 0.14	-2.28 ± 0.16
AGCCAGCAAUAUUACGUUGC	-2.87 ± 0.18	-3.28 ± 0.27
AGCGAGCAAUAUUACGAAGC	-3.45 ± 0.43	-2.17 ± 0.25
AGCGAGCAAUAUUACGAAUU	–	-1.41 ± 0.34
AGCGAGCAAUAUUACGACAA	-3.33 ± 0.41	-1.23 ± 0.3
AGCGAGCAAUAUUACGACGU	-1.74 ± 0.083	-0.339 ± 0.11
AGCGAGCAAUAUUACGAGCA	-0.722 ± 0.11	-0.526 ± 0.11
AGCGAGCAAUAUUACGCAAA	-3.01 ± 0.36	-2.52 ± 0.48
AGCGAGCAAUAUUACGCAGC	-4.05 ± 0.46	–
AGCGAGCAAUAUUACGCCAA	-3.98 ± 0.25	-1.56 ± 0.16
AGCGAGCAAUAUUACGCCCA	-2.07 ± 0.39	-1.52 ± 0.34
AGCGAGCAAUAUUACGCGGG	-2.55 ± 0.24	-2.54 ± 0.36

Sequence	self-splicing fitness (ln) (30 °C)	self-splicing fitness (ln) (37 °C)
AGCGAGCAAUAUUACGCUAA	-1.62 ± 0.25	-1.85 ± 0.3
AGCGAGCAAUAUUACGCUCU	-3.64 ± 0.35	-2.61 ± 0.29
AGCGAGCAAUAUUACGGCUA	-0.634 ± 0.19	-0.479 ± 0.13
AGCGAGCAAUAUUACGGGCC	-3.58 ± 0.47	-2.88 ± 0.43
AGCGAGCAAUAUUACGUAUU	-3.54 ± 0.17	-1.79 ± 0.16
AGCGAGCAAUAUUACGUCGA	-2.82 ± 0.27	-2.3 ± 0.28
AGCGAGCAAUAUUACGUUAC	-3.84 ± 0.21	-2.26 ± 0.23
AGCGAGCAAUAUUACGUUGA	–	-2.11 ± 0.16
AGCGAGCAAUAUUACGUUGC	–	-3.69 ± 0.42
AGCUAGCAAUAUUACGACAG	-2.36 ± 0.21	-1.64 ± 0.24
AGCUAGCAAUAUUACGACAU	-0.509 ± 0.012	-0.147 ± 0.032
AGCUAGCAAUAUUACGACCA	-0.512 ± 0.17	-0.124 ± 0.17
AGCUAGCAAUAUUACGAGAG	-2.83 ± 0.15	-3.13 ± 0.28
AGCUAGCAAUAUUACGAGCG	-0.417 ± 0.085	-0.0421 ± 0.11
AGCUAGCAAUAUUACGAGGG	-3.75 ± 0.21	-1.34 ± 0.14
AGCUAGCAAUAUUACGAGUC	-3.89 ± 0.22	-2.08 ± 0.19
AGCUAGCAAUAUUACGAUCC	0.0246 ± 0.14	0.559 ± 0.16
AGCUAGCAAUAUUACGAUCU	0.121 ± 0.12	0.532 ± 0.13
AGCUAGCAAUAUUACGAUUC	-1.8 ± 0.11	-0.417 ± 0.15
AGCUAGCAAUAUUACGAUUG	-2.89 ± 0.24	-1.98 ± 0.23
AGCUAGCAAUAUUACGCAAA	-1.8 ± 0.18	-2.24 ± 0.24
AGCUAGCAAUAUUACGCAUC	-2.95 ± 0.36	–
AGCUAGCAAUAUUACGCAUG	-2.12 ± 0.16	-1.06 ± 0.12
AGCUAGCAAUAUUACGCCAA	-1.7 ± 0.27	-1.75 ± 0.2
AGCUAGCAAUAUUACGCCCA	-1.5 ± 0.21	-0.441 ± 0.35

Sequence	self-splicing fitness (ln) (30 °C)	self-splicing fitness (ln) (37 °C)
AGCUAGCAAUAUUACGCCCC	-0.339 ± 0.24	-0.157 ± 0.34
AGCUAGCAAUAUUACGCGAC	-3.48 ± 0.47	-2.38 ± 0.43
AGCUAGCAAUAUUACGCUCA	-1.67 ± 0.25	-2.11 ± 0.37
AGCUAGCAAUAUUACGGACG	-0.719 ± 0.075	-0.105 ± 0.1
AGCUAGCAAUAUUACGGACU	8.42e-05 ± 0.097	0.516 ± 0.12
AGCUAGCAAUAUUACGGCAG	-1.19 ± 0.1	-1.08 ± 0.12
AGCUAGCAAUAUUACGGCGC	-1.1 ± 0.093	-0.362 ± 0.14
AGCUAGCAAUAUUACGGCGG	-1.13 ± 0.12	-0.547 ± 0.14
AGCUAGCAAUAUUACGGUUA	-0.191 ± 0.067	0.383 ± 0.073
AGCUAGCAAUAUUACGUAGG	-3.29 ± 0.13	-1.27 ± 0.13
AGCUAGCAAUAUUACGUGCA	-0.188 ± 0.069	0.247 ± 0.096
AGGAAGCAAUAUUACGACAG	-2.74 ± 0.19	-1.64 ± 0.18
AGGAAGCAAUAUUACGACAU	-0.63 ± 0.014	-0.543 ± 0.033
AGGAAGCAAUAUUACGACGG	-1.98 ± 0.17	-0.95 ± 0.23
AGGAAGCAAUAUUACGAGAG	-3.03 ± 0.14	-2.29 ± 0.17
AGGAAGCAAUAUUACGAUUA	-1.47 ± 0.08	-1.21 ± 0.069
AGGAAGCAAUAUUACGAUUC	-1.41 ± 0.15	-2.53 ± 0.18
AGGAAGCAAUAUUACGCACA	-0.546 ± 0.13	0.104 ± 0.19
AGGAAGCAAUAUUACGCCAC	-2.13 ± 0.24	-2.64 ± 0.41
AGGAAGCAAUAUUACGCGGC	–	-1.98 ± 0.44
AGGAAGCAAUAUUACGCUAA	-1.19 ± 0.13	-1.89 ± 0.27
AGGAAGCAAUAUUACGCUCA	-0.332 ± 0.13	-0.339 ± 0.16
AGGAAGCAAUAUUACGCUGG	-3.46 ± 0.38	-1.08 ± 0.27
AGGAAGCAAUAUUACGCUUC	-2.44 ± 0.28	–
AGGAAGCAAUAUUACGGAGC	-2.78 ± 0.21	-1.61 ± 0.3

Sequence	self-splicing fitness (ln) (30 °C)	self-splicing fitness (ln) (37 °C)
AGGAAGCAAUAUUACGGGCA	-1.55 ± 0.21	-1.13 ± 0.23
AGGAAGCAAUAUUACGUAGA	-1.86 ± 0.099	-2.42 ± 0.15
AGGAAGCAAUAUUACGUGGA	-3.05 ± 0.19	-1.16 ± 0.13
AGGAAGCAAUAUUACGUGGC	–	-3.3 ± 0.43
AGGAAGCAAUAUUACGUGUU	-3.8 ± 0.21	-0.935 ± 0.14
AGGAAGCAAUAUUACGUUAC	-2.66 ± 0.14	-3.18 ± 0.28
AGGAAGCAAUAUUACGUUAU	-3.44 ± 0.18	-1.6 ± 0.17
AGGAAGCAAUAUUACGUUCC	-2.96 ± 0.39	-2.59 ± 0.48
AGGCAGCAAUAUUACGAAGG	-1.9 ± 0.22	-1.56 ± 0.27
AGGCAGCAAUAUUACGACGG	-2.49 ± 0.16	-0.746 ± 0.22
AGGCAGCAAUAUUACGAGCC	-2 ± 0.14	-1.4 ± 0.21
AGGCAGCAAUAUUACGAGUC	-2.29 ± 0.14	-2.34 ± 0.2
AGGCAGCAAUAUUACGCAUC	-3.99 ± 0.19	-1.04 ± 0.11
AGGCAGCAAUAUUACGCGAG	-2.49 ± 0.13	-1.12 ± 0.13
AGGCAGCAAUAUUACGGAAU	-1.67 ± 0.057	-0.844 ± 0.084
AGGCAGCAAUAUUACGGAUC	-2.19 ± 0.1	-0.495 ± 0.099
AGGCAGCAAUAUUACGGAUU	-1.08 ± 0.077	0.356 ± 0.098
AGGCAGCAAUAUUACGGCUC	-0.958 ± 0.17	-0.371 ± 0.19
AGGCAGCAAUAUUACGGGUU	-3.33 ± 0.22	-1.01 ± 0.12
AGGCAGCAAUAUUACGGUCC	-1.61 ± 0.15	-1.64 ± 0.26
AGGCAGCAAUAUUACGGUGA	-1.37 ± 0.14	-0.711 ± 0.11
AGGCAGCAAUAUUACGGUGG	-3.05 ± 0.16	-2.88 ± 0.23
